The chains are these.
B1: TMEM106C (parent)
chain: YVTTNVSLIPPRSEQLVNFTGKAE
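Further: lentivirally expressed fusions sorted by FACS into six bins by GFP to DsRed ratio, PSI derived from sequencing read proportions per bin multiplied by bin number.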

The variants in this series derive from B1. The experiment in a line: protein stability index of a GFP-peptide fusion (GPS, HEK-293T) (PSI 1-6); higher = more stable. As to conditions: c terminus: a fixed tail appended.
With YVTTNVSLRPPRSEQLVNFTGKAE [I9R], the protein stability index was found to be 1.99.

Take YVTTNVSLSPPRSEQLVNFTGKAE [I9S]: the protein stability index was determined as 1.71.

As to YVTTNVSLGPPRSEQLVNFTGKAE [I9G], the protein stability index stood at 1.6.

For YVTTNVSLMPPRSEQLVNFTGKAE [I9M], the protein stability index was determined as 1.86.

As to YVTTNVSLNPPRSEQLVNFTGKAE [I9N], the protein stability index is 2.17.

Turning to YVTTNVSLHPPRSEQLVNFTGKAE [I9H], the protein stability index is 2.46.

YVTTNVSLFPPRSEQLVNFTGKAE [I9F]: the protein stability index was found to be 1.7.

YVTTNVSLWPPRSEQLVNFTGKAE [I9W]: the protein stability index was 1.75.

Turning to YVTTNVSLDPPRSEQLVNFTGKAE [I9D], the protein stability index was 2.24.

Consider YVTTNVSLKPPRSEQLVNFTGKAE [I9K], for which the protein stability index came out at 2.02.

On to YVTTNVSLLPPRSEQLVNFTGKAE [I9L], for which the protein stability index amounted to 1.7.

Take YVTTNVSLYPPRSEQLVNFTGKAE [I9Y]: the protein stability index is 2.32.

As for YVTTNVSLQPPRSEQLVNFTGKAE [I9Q], the protein stability index amounted to 1.61.

As to YVTTNVSLEPPRSEQLVNFTGKAE [I9E], the protein stability index amounted to 2.25.

In the case of YVTTNVSLVPPRSEQLVNFTGKAE [I9V], the protein stability index came to 1.51.

YVTTNVSLTPPRSEQLVNFTGKAE [I9T]: the protein stability index turned out to be 2.43.

YVTTNVSLPPPRSEQLVNFTGKAE [I9P]: the protein stability index was determined as 1.81.

Regarding YVTTNVSLAPPRSEQLVNFTGKAE [I9A], the protein stability index came out at 2.94.

Take YVTTNVSLCPPRSEQLVNFTGKAE [I9C]: the protein stability index worked out at 1.2.

In the case of YVTTNVSLIPIRSEQLVNFTGKAE [P11I], the protein stability index is 2.3.

With YVTTNVSLIPERSEQLVNFTGKAE [P11E], the protein stability index was 1.72.

YVTTNVSLIPNRSEQLVNFTGKAE [P11N]: the protein stability index worked out at 2.37.

With YVTTNVSLIPTRSEQLVNFTGKAE [P11T], the protein stability index is 1.74.

Consider YVTTNVSLIPYRSEQLVNFTGKAE [P11Y], for which the protein stability index was 2.75.

Regarding YVTTNVSLIPWRSEQLVNFTGKAE [P11W], the protein stability index came to 3.67.

Turning to YVTTNVSLIPFRSEQLVNFTGKAE [P11F], the protein stability index came out at 3.09.

Take YVTTNVSLIPLRSEQLVNFTGKAE [P11L]: the protein stability index stood at 1.51.

With YVTTNVSLIPSRSEQLVNFTGKAE [P11S], the protein stability index is 2.65.

In the case of YVTTNVSLIPHRSEQLVNFTGKAE [P11H], the protein stability index amounted to 1.97.

For YVTTNVSLIPARSEQLVNFTGKAE [P11A], the protein stability index is 1.6.

YVTTNVSLIPRRSEQLVNFTGKAE [P11R]: the protein stability index amounted to 1.41.

As to YVTTNVSLIPGRSEQLVNFTGKAE [P11G], the protein stability index turned out to be 2.51.

Regarding YVTTNVSLIPKRSEQLVNFTGKAE [P11K], the protein stability index came out at 2.01.

Consider YVTTNVSLIPDRSEQLVNFTGKAE [P11D], for which the protein stability index was found to be 2.11.

YVTTNVSLIPQRSEQLVNFTGKAE [P11Q]: the protein stability index was 2.12.

As to YVTTNVSLIPVRSEQLVNFTGKAE [P11V], the protein stability index stood at 1.41.

As for YVTTNVSLIPMRSEQLVNFTGKAE [P11M], the protein stability index is 1.45.

In the case of YVTTNMSLIPPRSEQLVNFTGKAE [V6M], the protein stability index worked out at 1.75.

As to YVTTNASLIPPRSEQLVNFTGKAE [V6A], the protein stability index turned out to be 1.86.

Take YVTTNRSLIPPRSEQLVNFTGKAE [V6R]: the protein stability index was 1.92.

For YVTTNTSLIPPRSEQLVNFTGKAE [V6T], the protein stability index turned out to be 2.02.

For YVTTNESLIPPRSEQLVNFTGKAE [V6E], the protein stability index was found to be 2.36.

Turning to YVTTNYSLIPPRSEQLVNFTGKAE [V6Y], the protein stability index was 2.76.

Regarding YVTTNSSLIPPRSEQLVNFTGKAE [V6S], the protein stability index came out at 1.91.

On to YVTTNLSLIPPRSEQLVNFTGKAE [V6L], for which the protein stability index was determined as 2.06.

For the variant YVTTNFSLIPPRSEQLVNFTGKAE [V6F], the protein stability index stood at 3.64.

As to YVTTNDSLIPPRSEQLVNFTGKAE [V6D], the protein stability index turned out to be 2.37.

In the case of YVTTNCSLIPPRSEQLVNFTGKAE [V6C], the protein stability index came to 1.82.

YVTTNISLIPPRSEQLVNFTGKAE [V6I]: the protein stability index worked out at 1.86.

On to YVTTNKSLIPPRSEQLVNFTGKAE [V6K], for which the protein stability index stood at 1.87.

As for YVTTNQSLIPPRSEQLVNFTGKAE [V6Q], the protein stability index is 1.68.

Regarding YVTTNNSLIPPRSEQLVNFTGKAE [V6N], the protein stability index came to 2.26.

For the variant YVTTNGSLIPPRSEQLVNFTGKAE [V6G], the protein stability index came out at 1.77.

For the variant YVTTNWSLIPPRSEQLVNFTGKAE [V6W], the protein stability index worked out at 2.57.

Take YVTTNPSLIPPRSEQLVNFTGKAE [V6P]: the protein stability index came out at 2.

As to YVTTNHSLIPPRSEQLVNFTGKAE [V6H], the protein stability index was found to be 1.59.

On to YVTTNVDLIPPRSEQLVNFTGKAE [S7D], for which the protein stability index came to 2.37.

For the variant YVTTNVRLIPPRSEQLVNFTGKAE [S7R], the protein stability index was determined as 2.13.

YVTTNVALIPPRSEQLVNFTGKAE [S7A]: the protein stability index came to 1.31.

YVTTNVILIPPRSEQLVNFTGKAE [S7I]: the protein stability index worked out at 3.34.

YVTTNVNLIPPRSEQLVNFTGKAE [S7N]: the protein stability index turned out to be 2.18.

Turning to YVTTNVQLIPPRSEQLVNFTGKAE [S7Q], the protein stability index worked out at 2.27.

Take YVTTNVLLIPPRSEQLVNFTGKAE [S7L]: the protein stability index amounted to 2.45.

Regarding YVTTNVVLIPPRSEQLVNFTGKAE [S7V], the protein stability index was 1.79.

Turning to YVTTNVGLIPPRSEQLVNFTGKAE [S7G], the protein stability index came out at 2.36.

As for YVTTNVELIPPRSEQLVNFTGKAE [S7E], the protein stability index came out at 2.13.

In the case of YVTTNVPLIPPRSEQLVNFTGKAE [S7P], the protein stability index turned out to be 2.81.

With YVTTNVHLIPPRSEQLVNFTGKAE [S7H], the protein stability index is 2.29.

Regarding YVTTNVYLIPPRSEQLVNFTGKAE [S7Y], the protein stability index turned out to be 3.23.

With YVTTNVFLIPPRSEQLVNFTGKAE [S7F], the protein stability index came out at 1.83.

On to YVTTNVMLIPPRSEQLVNFTGKAE [S7M], for which the protein stability index amounted to 1.57.

In the case of YVTTNVCLIPPRSEQLVNFTGKAE [S7C], the protein stability index is 2.56.

YVTTNVKLIPPRSEQLVNFTGKAE [S7K]: the protein stability index came out at 1.36.

For YVTTNVWLIPPRSEQLVNFTGKAE [S7W], the protein stability index came out at 1.54.

For the variant YVTTNVTLIPPRSEQLVNFTGKAE [S7T], the protein stability index worked out at 2.64.

YVTTNVSLIPPRSFQLVNFTGKAE [E14F]: the protein stability index was 1.99.

Turning to YVTTNVSLIPPRSDQLVNFTGKAE [E14D], the protein stability index came out at 1.46.

Regarding YVTTNVSLIPPRSGQLVNFTGKAE [E14G], the protein stability index amounted to 1.59.

In the case of YVTTNVSLIPPRSAQLVNFTGKAE [E14A], the protein stability index turned out to be 2.11.

For YVTTNVSLIPPRCEQLVNFTGKAE [S13C], the protein stability index was 2.24.

With YVTTNVSLIPPREEQLVNFTGKAE [S13E], the protein stability index stood at 1.88.

For the variant YVTTNVSLIPPRWEQLVNFTGKAE [S13W], the protein stability index worked out at 1.18.

As to YVTTNVSLIPPRYEQLVNFTGKAE [S13Y], the protein stability index was 2.2.

Turning to YVTTNVSLIPPRFEQLVNFTGKAE [S13F], the protein stability index came out at 2.56.

In the case of YVTTNVSLIPPRVEQLVNFTGKAE [S13V], the protein stability index came out at 2.07.

Consider YVTTNVSLIPPRIEQLVNFTGKAE [S13I], for which the protein stability index was found to be 1.62.

As to YVTTNVSLIPPRKEQLVNFTGKAE [S13K], the protein stability index is 1.55.

Regarding YVTTNVSLIPPRHEQLVNFTGKAE [S13H], the protein stability index was determined as 2.34.

For the variant YVTTNVSLIPPRNEQLVNFTGKAE [S13N], the protein stability index was found to be 2.32.

In the case of YVTTNVSLIPPRMEQLVNFTGKAE [S13M], the protein stability index is 2.

Take YVTTNVSLIPPRLEQLVNFTGKAE [S13L]: the protein stability index is 2.32.

Consider YVTTNVSLIPPRAEQLVNFTGKAE [S13A], for which the protein stability index came to 2.22.

Consider YVTTNVSLIPPRDEQLVNFTGKAE [S13D], for which the protein stability index is 1.57.

Turning to YVTTNVSLIPPRQEQLVNFTGKAE [S13Q], the protein stability index was determined as 1.72.

These data come from the supplement of paper PMC10567573.
